From IntAct's records for PubMed 26471729

B1: Antiviral innate immune response receptor RIG-I (Homo sapiens), O95786 (parent)
chain: MTTEQRRSLQAFQDYIRKTLDPTYILSYMAPWFREEEVQYIQAEKNNKGPMEAATLFLKFLLELQEEGWFRGFLDALDHAGYSGLYEAIESWDFKKIEKLEEYRLLLKRLQPEFKTRIIPTDIISDLSECLINQECEEILQICSTKGMMAGAEKLVECLLRSDKENWPKTLKLALEKERNKFSELWIVEKGIKDVETEDLEDKMETSDIQIFYQEDPECQNLSENSCPPSEVSDTNLYSPFKPRNYQLELALPAMKGKNTIICAPTGCGKTFVSLLICEHHLKKFPQGQKGKVVFFANQIPVYEQQKSVFSKYFERHGYRVTGISGATAENVPVEQIVENNDIIILTPQILVNNLKKGTIPSLSIFTLMIFDECHNTSKQHPYNMIMFNYLDQKLGGSSGPLPQVIGLTASVGVGDAKNTDEALDYICKLCASLDASVIATVKHNLEELEQVVYKPQKFFRKVESRISDKFKYIIAQLMRDTESLAKRICKDLENLSQIQNREFGTQKYEQWIVTVQKACMVFQMPDKDEESRICKALFLYTSHLRKYNDALIISEHARMKDALDYLKDFFSNVRAAGFDEIEQDLTQRFEEKLQELESVSRDPSNENPKLEDLCFILQEEYHLNPETITILFVKTRALVDALKNWIEGNPKLSFLKPGILTGRGKTNQNTGMTLPAQKCILDAFKASGDHNILIATSVADEGIDIAQCNLVILYEYVGNVIKMIQTRGRGRARGSKCFLLTSNAGVIEKEQINMYKEKMMNDSILRLQTWDEAVFREKILHIQTHEKFIRDSQEKPKPVPDKENKKLLCRKCKALACYTADVRVIEECHYTVLGDAFKECFVSRPHPKPKQFSSFEKRAKIFCARQNCSHDWGIHVKYKTFEIPVIKIESFVVEDIATGVQTLYSKWKDFHFEKIPFDPAEMSK
partner: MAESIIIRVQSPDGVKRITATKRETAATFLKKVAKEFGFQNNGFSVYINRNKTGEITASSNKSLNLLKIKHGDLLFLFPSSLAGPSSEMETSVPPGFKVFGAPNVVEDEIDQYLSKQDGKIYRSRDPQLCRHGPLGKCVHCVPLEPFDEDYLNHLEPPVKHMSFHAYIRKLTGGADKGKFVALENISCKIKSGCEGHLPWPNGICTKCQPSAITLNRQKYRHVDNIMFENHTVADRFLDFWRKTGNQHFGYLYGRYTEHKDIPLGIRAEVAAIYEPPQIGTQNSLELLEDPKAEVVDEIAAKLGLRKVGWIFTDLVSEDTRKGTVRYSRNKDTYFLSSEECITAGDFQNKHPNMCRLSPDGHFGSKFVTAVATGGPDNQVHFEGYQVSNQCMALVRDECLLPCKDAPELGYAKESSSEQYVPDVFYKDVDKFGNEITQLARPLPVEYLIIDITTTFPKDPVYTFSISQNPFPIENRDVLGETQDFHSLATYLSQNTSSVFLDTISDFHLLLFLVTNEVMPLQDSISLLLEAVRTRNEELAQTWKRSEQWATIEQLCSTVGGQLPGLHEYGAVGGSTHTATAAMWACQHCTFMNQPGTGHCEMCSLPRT

Variants of: B1
Settings: with npl4_human NPLOC4, Q8TAT6

Variant	effect of a mutation on the interaction
K172R	decreasing interaction strength
T170E;K172R	decreasing interaction strength
K181R	with no effect
